{
  "source": "patent US20040105862A1",
  "key": {"mouse TIMP-1 (mouse) [1]": {"molecular_target": "mouse TIMP-1 (mouse) (UniProt P12032)", "sequence (P12032 25-205 limits assumed)": "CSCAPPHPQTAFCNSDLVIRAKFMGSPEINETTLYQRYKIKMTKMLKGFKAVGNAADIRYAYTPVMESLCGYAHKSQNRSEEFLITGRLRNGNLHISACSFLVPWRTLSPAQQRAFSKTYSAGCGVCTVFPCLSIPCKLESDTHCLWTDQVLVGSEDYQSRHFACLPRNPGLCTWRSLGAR", "experiment": "BIAcore SPR"}, "mouse TIMP-1 (mouse) [2]": {"molecular_target": "mouse TIMP-1 (mouse) (UniProt P12032)", "experiment": "BIAcore SPR, immobilised mouse TIMP-1"}},
  "data": [
    {"binder": "MS-BW-17-1 Fab (Fab, V domains shown) VH: QVQLVQSGAEVKKPGESLKISCKGSGYSFTSYWIGWVRQMPGKGLEWMGIIYPGDSDTRYSPSFQGQVTISADKSISTAYLQWSSLKASDTAMYYCARLTNYFDSIYYDHWGQGTLVTVSS VL: DIALTQPASVSGSPGQSITISCTGTSSDVGGYNYVSWYQQHPGKAPKLMIYDVSNRPSGVSNRFSGSKSGNTASLTISGLQAEDEADYYCQAFDVAPNGKVFGGGTKLTVLG", "values": [
      {"measurement": "fold weaker than the affinity to rat TIMP-1", "setting": "mouse TIMP-1 (mouse) [1]", "value": 225, "unit": "fold"},
      {"measurement": "Kd", "setting": "mouse TIMP-1 (mouse) [2]", "value": 180, "unit": "nM"}
    ]}
  ]
}
